Source: the RNAGym collection of RNA variant scans (doi:10.1073/pnas.2313332121)

B1: TPR t1 (parent)
chain: GACCAAUCUGCCCUCAGAGCUCGAGAACAUCUUCGGAUGCAGAGGAGGCAGGCUUCGGUGGCGCGAUAGCGCCAACGUCCUCAACCUCCAAUGCAUCCCACCACAUGAUGAUGCCUGAAGAGCCUUGGUUUUUUG

Variants of: B1
Assay: polymerase ribozyme fitness, log enrichment relative to wild type (log ratio); higher = more active; in vitro selection for triplet polymerase activity
How it was run: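 To select mutant libraries of each subunit of a heterodimeric triplet polymerase ribozyme, built by PCR and transcribed, each was annealed with a biotinylated primer, partner subunit and triplets, then incubated frozen at −7 °C. Extended constructs were gel-excised, captured on streptavidin beads and amplified by RT-PCR, in one round carried out in triplicate. Illumina sequencing of input and output libraries kept genotypes with ≥10 input reads and ≥1 read per output. Fitness is the base-2 logarithm of genotype enrichment relative to wild-type enrichment, from inverse-variance-weighted replicate averages.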

Variant	polymerase ribozyme fitness (log ratio)
GACCGAUCUACCCUAAGAGCUCCAGAACAUCGUCGGAUGCAGAGGAGGCAGGCUUCGGUGGCGAGAUAGCGCCAACGUCCUCAACCUCCAAUGCAUCCCACCACAUGAUGAUGCCUGAAGAGCCUUGCUCUUUUG [A5G G10A C15A G23C U32G C64A G128C U130C]	-6.17
GACCAAUCUGCCCUCAGAGCUCGAGAACAUCUUCGGAUGCAGAGGAGGCAGGCUUCGGUGGCGCGGUAGCGCCAACGUCCUCAACGUCCAAUGCAUCCCACCACAUGAUGAUGCCUGAAGAGCCUUGGUUUUUUG [A66G C86G]	-1.77
GACCAAUCUGCCCUCAGAGCUCGAGAACAUCUUCGGAUGCAGAGGAGGCAGGCUUCGGUGGCUCGAUAGCGCCAACGUCCUCAACCGCCAAUGCAUCCCACCACAUGAUGAUGCCUGAAGAGCCUUGGUUUUUUG [G63U U87G]	-0.803
GACCAAGCUGCCCUCAGAGCUCGAGAACAUCUUCGGAUGCAGAGGAGGCAGGCUUCGGAGGCGCGAUAGCGCCAACGUCCUCAACCUCCAAUGCAUCCCACCACAUGAUGAUGCCUGAAGAGCCUUGGUGUUUUG [U7G U59A U130G]	-0.396
GACCAAUCUGCCCUCAGAGCUCGAGAACAUCUUCAGAUGCAGAGGAGGCAGGCUUCGGUGGCGCGAUAGCGCCAACGUCCUCAACCUCCAAUGCAUCCGACCACAUGAUGAUGCCUGAAGAGCCUUGGUUUUGUG [G35A C99G U133G]	-5.8
GACCAAUCUGCCCUCAGAGCUCGAGAACAUCUUCGGAUGCAGAGGAUGCAGGCUUCGGUGGCGCGAUAGCGCCAACAUCCUCAACCUCCAAUGCAUCCCACCACAUGAUGAUGCCUGAAGAGCCUUGGUUUUUUG [G47U G77A]	-2.15
GACCAAUUUGCCCUUAGAGCUCGAGAACAUCCUCGGAUGCAGAGGAGGCAGGCUUCGGUGGCGCGAUAGCUCCAACGUCCUCAACCUCCAAUGCAUCCUACCACAUGAUGAUGCCUGAAGAGCCUUGGUUUUUUG [C8U C15U U32C G71U C99U]	-4.38
GACCAAUCUGCCCUCAGAGCUCGAGAACAUCUUCGGAUGCAGAGGAGGCAGGUUUCGGUGGCGCGAUAGCCCCAACGUCCUCAACCUCCAAUGCAUCCCACCACAUGAUGAUGCCUGAAGAGCCUUGGUUUUUUG [C53U G71C]	-0.133
GACCAAUCUGCCCUCAGAGCUCGAGAACAUCUUCGGAUGCUGAGGAGGCAGGCUUCAGUGGCGCGAUAGCGCCAACAUCCUCAACCUCCAAUGCAUCCCACCACAUGAUGAUGCCUGAAGAGCCUUGGUUUUUUG [A41U G57A G77A]	-1.68
GACCAAUCUGCCCUCAGAGCUCGAGAACAUCUUCGGAUGCAGAGGAGGCAGGCUUCGGUGGCGCGAUAGAGCCAACGUCCUCAACCUCCAAUGCAUCCCACCACAUGAUGAUGCUUGAAGAGCCUUGGUUUUUUG [C70A C115U]	-2.84
GACCAAUCUGCCCUCAGAGCUCGAGAACAUCUUCGGAUGCAGAGGAGGCAGGUUUCGGUGGCGCGAUAGCGCCAACGUACUCAAUCUUCAAUGCAUCCCACCACAUGAUGAUGCCUGAAGAGCCUUGGUUUUUUG [C53U C79A C85U C88U]	-2.08
GACCAAUCUGCCCUCAGAGCUCGAGAACAUCUUCGGAUGCAGAGGAGGGAGGCUUCGGUGGCGCGAUAGCGCCAACGUCCUCGACCUCCAAUGCAUCCCACCACAUGAUGAUGCCUGAAGAGCGUUGGUUUUUUG [C49G A83G C124G]	1.03
GAACAAUCUGCCCUCAGAGCUCGAGAACAUCUUCGGAUGCAGAGGAGUCAGGCUUCGGUGGCGCGAUAGCGCCAACGUCCUCAACCUCCAAUGCAUCCCACCACAUGAUGAUGCCUGAAGAGCCAUGGUUUUUUG [C3A G48U U125A]	-2.7
GACCAAUCUGGCCUCAGAGCUCGAGAACAUCUUCGGAUGCAGACGAGGCAGGCUUCGGUGGCGCGAUAGCGCCAACAUCAUCAACCUCCAAUGCAUCCCACCACAUGAUGAUGCCUGAAGAGCCUUGGUAAUUUG [C11G G44C G77A C80A U130A U131A]	-4.18
GACCAAUGUGCCCUCAGAGCUCGAGAGCAUCUUCGGAUGCAGAGGAGGCAGGCUUCGGUGGCGUGAUAGCGUCAACGUCCUCAACCUCCAAUUCAUCCCACCAAAUGAUGUUGCCUGAAGAGCCCUGGUUUUUUG [C8G A27G C64U C72U G93U C104A A111U U125C]	-3.56
GACCAAUCUGCCCUCAGAGCUCGAGAACGUCCUCGGAUGCAGAGGAGGCUGGCUUCGGUGGCGCGAUAGCGCCAACGUCCUCAACCUCCAAUGCAUCCCACCACAUGAUGAUGCCUGAAGAGCCUUGGUUUUUUG [A29G U32C A50U]	-1.45
GACCAAUCUGCCCUCAGAGCUCGAGAACAUCUUCGGAUGCAGAGGAGGCAGGCUUCGGUGGCGCGAUAGUGCCAACGUCCUCAACCUCCAAUGCAUCCCACCACAUGAUUAUGCCUGAAGAGCCUUGGUUUUUUG [C70U G110U]	-2.59
GACCAAUCUGCCCUCUGAGCUCGAGAACAUCUUCGGAUGCAGAGGAGGCAGGCUUCGGUGGCGCGAUAGCGGCAACGUCCUCAACCUCCAAUGCAUCCCACCACAUGAUGAUGCCUGAAGAACCUUGGUUUUUUG [A16U C72G G122A]	-2.16
GACCAAUCUGCCCUCAGAGCUCGAGAACAUCUUCGGAUGCAGAGGAGGCAGGCUUCGGUGGCACGAUAGCGGCAACGUCCUCAACCUCCAAUGCAUCCCACCAGAUGAUGAUGCCUGAAAAUCCUUGGUUUUUUG [G63A C72G C104G G120A G122U]	-6.38
GACCAAUCUGCCCUCAGAGCUCGAGAACAUCUUCGGUUGCAGACGAGGCAGGCUUCGGUGGCGCGAUAGCGCCAACGUCCUCAACCUCCAAUGCAUCCCGCCAUAUGAUGAUGCAUGAAGAGCCUUGGUUUUUUG [A37U G44C A100G C104U C115A]	-5.44
GACCAAUCUGCCCUCAGAGCUCGAGAACAUCUUCGGAUGCAGAGGAGGCAGGCUGCGGUGGCGCGAUAGCGCCAACGUCCUCAACCUGCAAUGCAUCCCACCACAUGAUGAUGCCUGAAGAGCCUUGGUUUUUUG [U55G C88G]	-0.483
